Values quoted from earlier work as cited in paper PMC9986639.

Molecular target: PAPR (Escherichia coli) (UniProt P17854)
Sequence (P17854 2-244): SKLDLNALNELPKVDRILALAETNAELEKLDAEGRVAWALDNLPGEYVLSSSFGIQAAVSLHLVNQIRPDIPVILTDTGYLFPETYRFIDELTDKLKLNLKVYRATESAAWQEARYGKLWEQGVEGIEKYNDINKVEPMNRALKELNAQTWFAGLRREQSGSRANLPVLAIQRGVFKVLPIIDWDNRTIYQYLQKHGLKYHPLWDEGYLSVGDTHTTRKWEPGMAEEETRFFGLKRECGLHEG

Chain of Trx1 (P0AA25 2-109): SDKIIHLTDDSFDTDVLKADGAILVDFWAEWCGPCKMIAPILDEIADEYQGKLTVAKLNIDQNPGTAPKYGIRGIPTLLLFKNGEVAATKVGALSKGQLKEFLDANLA

Trx1 (from UniProt P0AA25)
Kd: 110 µM
